Residue numbers refer to the chain shown, from its start. Like-named read-outs stand apart in the source and are kept apart here.
B1: Chimeric Antibody 12B12-MMAF (antibody, V domains shown)
VH: DVQLVESGGGLVQPGGSRKLSCAASGFTFSNFGMHWVRQAPEKGLEWVAYISSGSTSFYYADTVKGRFTISRDNPKNTLFLQMTSLRSEDTAMYYCSRTNSLLRGFFDAWGAGTTVTVSS
VL: DIVLTQSPASLAVSLGQRATISCRASQSVSSSSYTYLHWYQQKPGQPPKLLIKSASNLESGVPARFSGTGSGTDFTLNIHPVEEEDTATYYCQHSWEIPLTFGAGTKLELK
modifications: MC-MMAF on cysteines reduced with TCEP (sites not given), DAR 3.0-5.0 per antibody
B2: Humanized Antibody 12B12-12-MMAF (antibody, V domains shown)
VH: EVQLVESGGGLVQPGGSLRLSCAASGFTFSNFGMHWVRQAPGKGLEWVSYISSGSTSFYYADTVKGRFTISRDNAKNSLYLQMNSLRDEDTAVYYCARTNSLLRGFFDAWGQGTTVTVSS
VL: DIVLTQTPLSLSVTPGQPASISCRASQSVSSSSYTYLHWYLQKPGQPPQLLIKSASNLESGVPDRFSGSGSGTDFTLKISRVEAEDVGVYYCQHSWEIPLTFGQGTKLEIK
modifications: MC-MMAF on cysteines reduced with TCEP (sites not given), DAR 3.0-5.0 per antibody
B3: Humanized Antibody 12B12-15-MMAF (antibody, V domains shown)
VH: B2 VH with L11V, G16R, S49A, A75S, S78T, D88A
VL: B2 VL
modifications: MC-MMAF on cysteines reduced with TCEP (sites not given), DAR 3.0-5.0 per antibody
B4: Chimeric antibody 12B12 (antibody, V domains shown)
VH: B1 VH
VL: B1 VL
notes: Mouse variable domains on human IgG1 heavy and human kappa light constant regions; also called c12B12; TPBG chimeric antibody 12B12
B5: Humanized antibody 12B12-12 (antibody, V domains shown)
VH: B2 VH
VL: B2 VL
notes: also called h12B12-12
B6: Chimeric antibody 28D4 (antibody, V domains shown)
VH: DVQLVESGGGLVRPGGSLKLSCAASGFTFSNYVMSWARQSPEKRLEWVAEISTGGSHTYYSDTVTGRFTISRDNAKKALYLEMSSLRSEDTAIYYCIMFYYGSSYSMDYWGQGTSVTVSS
VL: DIQMTQSTSSLSASLGDRITISCRASQDIRNYLNWYQQKPDGTVKLLIYHTSRLHSGVPSRFSGSGSGTDYSLTISNLEQEDIATYFCQQGDTLPLTFGAGTRLELK
notes: Mouse variable domains on human IgG1 heavy and human kappa light constant regions; also called c28D4; TPBG chimeric antibody 28D4
B7: Humanized antibody 28D4-3 (antibody, V domains shown)
VH: EVQLVESGGGLVKPGGSLRLSCAASGFTFSNYVMSWIRQAPGKGLEWVAEISTGGSHTYYSDTVTGRFTISRDNAKKSLYLQMNSLRAEDTAVYYCIMFYYGSSYSMDYWGQGTTVTVSS
VL: DIQMTQSPSSLSASVGDRVTITCRASQDIRNYLNWYQQKPGKAPKLLIYHTSRLHSGVPSRFSGSGSGTDFTFTISSLQPEDIATYYCQQGDTLPLTFGQGTRLEIK
notes: also called h28D4-3
B8: Humanized antibody 28D4-4 (antibody, V domains shown)
VH: B7 VH with I37A, G44R
VL: B7 VL
notes: also called h28D4-4
B9: Humanized antibody 28D4-7 (antibody, V domains shown)
VH: B7 VH
VL: B7 VL with F71Y
notes: also called h28D4-7

Columns and labels:
[1] = biological target: T1, human TPBG protein, full-length, on the cell surface (human, UniProt Q13641 32-420); test: cell-based or functional assay
T1 sequence (looked up): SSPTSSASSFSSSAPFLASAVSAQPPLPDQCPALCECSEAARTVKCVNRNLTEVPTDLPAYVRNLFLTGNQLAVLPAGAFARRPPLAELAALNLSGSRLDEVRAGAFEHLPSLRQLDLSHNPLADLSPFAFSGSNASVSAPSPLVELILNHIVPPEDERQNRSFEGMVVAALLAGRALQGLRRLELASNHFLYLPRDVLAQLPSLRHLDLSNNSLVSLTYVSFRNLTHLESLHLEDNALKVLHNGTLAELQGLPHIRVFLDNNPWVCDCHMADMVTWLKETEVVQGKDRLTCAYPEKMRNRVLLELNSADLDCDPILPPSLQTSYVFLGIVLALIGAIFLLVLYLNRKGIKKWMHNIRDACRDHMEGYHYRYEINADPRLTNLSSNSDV

[2] = biological target: T1, human TPBG protein, full-length, on the …; test: cell-based or functional assay; remark: listed apart in the source
[3] = biological target: T2, cynomolgus TPBG protein, full-length, on the cell surface (cynomolgus, UniProt Q4R8Y9 35-420); test: FACS on CHOK1-cTPBG cells
T2 construct: whole, on cells; also called cTPBG; CHOk1-cTPBG
T2 sequence (looked up): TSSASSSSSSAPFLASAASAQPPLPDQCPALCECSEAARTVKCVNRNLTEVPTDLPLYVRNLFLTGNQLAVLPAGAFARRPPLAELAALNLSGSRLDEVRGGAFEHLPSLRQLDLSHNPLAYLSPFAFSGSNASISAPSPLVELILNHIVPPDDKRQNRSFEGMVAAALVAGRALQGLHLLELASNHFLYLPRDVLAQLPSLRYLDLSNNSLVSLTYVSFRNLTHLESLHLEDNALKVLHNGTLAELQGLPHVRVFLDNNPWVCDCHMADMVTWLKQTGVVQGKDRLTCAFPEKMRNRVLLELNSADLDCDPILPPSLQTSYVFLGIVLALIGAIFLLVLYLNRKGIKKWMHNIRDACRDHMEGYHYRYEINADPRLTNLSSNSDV

[4] = biological target: T1, human TPBG protein, full-length, on the …; test: FACS on CHOK1-hTPBG cells
human TPBG-hFc protein = biological target: T3, human TPBG-hFc protein (human, UniProt Q13641 32-355); test: ELISA, coated human TPBG-hFc
T3 construct: range 32-355; Expressed in HEK293 cells, purified on protein A; also called immunogen A; hFc tagged TPBG protein; not shown: human IgG Fc fragment of the pCpC vector
T3 sequence (looked up): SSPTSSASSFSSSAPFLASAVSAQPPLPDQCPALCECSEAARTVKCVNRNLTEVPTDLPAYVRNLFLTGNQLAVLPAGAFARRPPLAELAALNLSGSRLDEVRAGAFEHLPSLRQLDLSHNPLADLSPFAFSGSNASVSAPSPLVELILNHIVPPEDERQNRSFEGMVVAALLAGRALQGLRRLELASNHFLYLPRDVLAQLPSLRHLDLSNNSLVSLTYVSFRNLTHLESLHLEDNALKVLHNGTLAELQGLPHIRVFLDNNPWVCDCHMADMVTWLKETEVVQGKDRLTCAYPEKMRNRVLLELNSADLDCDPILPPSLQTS
Experimental: The purified human TPBG-hFc obtained from step (1) diluting with PBS to a final concentration of 1.0 μg/mL was aliquoted into a 96-well ELISA plate at 100 μL per well, and sealed with a parafilm and incubated at 4° C. overnight. The plate was washed twice with plate washing buffer (PBS containing 0.01% (v/v) Tween 20), and blocked with blocking buffer (PBS containing 0.01% (v/v) Tween 20 and 1% (w/w) BSA) at room temperature for 2 h. The blocking buffer was discarded, and […] per well of the purified antibody TPBG was added. After incubating at 37° C. for 2 h, the plate was washed for three times with plate washing buffer (PBS containing 0.01% (v/v) Tween 20). HRP (horseradish peroxidase)-labeled secondary antibody (purchased from Sigma) was added and incubated at 37° C. for 2 h, and the plate was washed for three times using plate washing buffer (PBS containing 0.01% (v/v) Tween 20). 100 μL of TMB substrate was aliquoted into each well, incubated at room temperature for 30 min, and 100 μL of stop buffer (1.0 N HCl) per well was subsequently added. A_{450 nm} values were read using the ELISA plate reader (SpectraMax 384plus purchased from Molecular Device), and the results were shown in Table 5. […] In Table 5 the IgG control herein is a mice IgG control, the data in the Table are OD_{450 nm} values, and Blank represents the OD_{450 nm} value of PBS buffer in the plate.
The purified humanized TPBG antibody obtained from Embodiment 1 was reacted with human TPBG-hFc, for the method, see (5) Identification of lead antibody in Embodiment 1. The EC50 in Table 11 and Table 12 are calculated according to the OD450 nm value of the h12B12 variants and the h28D4 variants, respectively. […] FIGS. 7A and 7B are the binding reactions of purified humanized h12B12 variants to human TBPG-hFc protein, and FIGS. 8A and 8B are the binding reactions of the purified humanized h28D4 variants to human TBPG-hFc protein.

[5] = biological target: T4, human TPBG antigen immobilized on a CM5 chip (human, UniProt Q13641 32-355, limits assumed); test: SPR (Biacore), human TPBG antigen immobilized on CM5 chip
T4 sequence (looked up): T3 sequence (looked up)
Experimental: To assess the binding specificity and affinity of the humanized anti-TPBG antibody, Biacore analysis was performed using human TPBG antigen immobilized on a CM5 chip. Biacore technique utilizes the change in the refractive index of surface layer after antibody binding to the TPBG antigen immobilized on the surface layer. The binding was determined by surface plasmon resonance (SPR) through detecting the laser refracted from the surface. Non-specific and specific interactions were distinguished by analysis of signal kinetics binding rate and dissociation rate. Chimeric antibodies 12B12 and 28D4 were used as controls.

[6] = biological target: T5, mouse TPBG protein, full-length, on the cell surface (mouse, UniProt Q9Z0L0 32-426); test: FACS on CHO-k1 cells with surface-expressed mouse TPBG, fluorescent secondary antibody, mean fluorescence intensity
T5 construct: whole, on cells; also called mTPBG; CHOk1-mTPBG
T5 sequence (looked up): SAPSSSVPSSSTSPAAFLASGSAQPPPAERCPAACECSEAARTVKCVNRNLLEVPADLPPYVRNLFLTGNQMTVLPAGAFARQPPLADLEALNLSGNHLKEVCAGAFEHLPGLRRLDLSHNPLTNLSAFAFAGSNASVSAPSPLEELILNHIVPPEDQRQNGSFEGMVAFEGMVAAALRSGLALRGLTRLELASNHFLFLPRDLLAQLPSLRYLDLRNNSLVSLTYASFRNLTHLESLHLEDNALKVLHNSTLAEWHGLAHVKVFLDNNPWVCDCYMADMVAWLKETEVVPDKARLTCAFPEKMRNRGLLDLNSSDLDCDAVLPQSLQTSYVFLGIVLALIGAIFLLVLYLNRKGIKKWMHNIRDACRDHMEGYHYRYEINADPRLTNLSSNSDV

[7] = biological target: T2, cynomolgus TPBG protein, full-length, …; test: FACS on CHOK1-cTPBG cells; remark: listed apart in the source
[8] = biological target: T1, human TPBG protein, full-length, on the …; test: FACS on CHOK1-hTPBG cells; remark: listed apart in the source
[9] = biological target: T5, mouse TPBG protein, full-length, on the …; test: FACS on CHO-k1 cells with surface-expressed mouse TPBG, fluorescent secondary antibody, mean fluorescence intensity; remark: listed apart in the source

| Binder | IC50 of cell killing, NCI-H1568 cells (CellTiter-Glo, 5 days) [1] [nM] | IC50 of cell killing, MDA-MB-468 cells (CellTiter-Glo, 5 days) [2] [nM] | IC50 of cell killing, NCI-H1568 cells (CellTiter-Glo, 5 days) [2] [nM] | IC50 of cell killing, NCI-H1975 cells (CellTiter-Glo, 5 days) [2] [nM] | EC50 [3] [nM] | EC50 [4] [nM] | EC50 (human TPBG-hFc protein) [nM] | Kd [5] [nM] | koff [5] [s⁻¹] | kon [5] [M⁻¹ s⁻¹] | binding result [6] | EC50 [7] [nM] | EC50 [8] [nM] | binding result [9] |
| --- | --- | --- | --- | --- | --- | --- | --- | --- | --- | --- | --- | --- | --- | --- |
| B1 | 0.063 |  |  |  |  |  |  |  |  |  |  |  |  |  |
| B2 | 0.066 | 0.06 | 0.05 | 0.13 |  |  |  |  |  |  |  |  |  |  |
| B3 | 0.058 |  |  |  |  |  |  |  |  |  |  |  |  |  |
| B4 |  |  |  |  | 0.67 | 0.33 | 0.137 | 0.0102 | 1.64e-05 | 1.61e+06 | no binding (tested: 100 nM) |  |  |  |
| B5 |  |  |  |  | 10.3 | 0.33 | 0.206 | 0.0186 | 2.29e-05 | 1.23e+06 | no binding (tested: 100 nM) |  |  |  |
| B6 |  |  |  |  |  |  | 0.165 | 0.013 | 3.24e-05 | 2.5e+06 |  | 0.94 | 0.33 | no binding (tested: 100 nM) |
| B7 |  |  |  |  |  |  | 0.16 | 0.0406 | 4.57e-05 | 1.12e+06 |  | 0.62 | 0.26 | no binding (tested: 100 nM) |
| B8 |  |  |  |  |  |  | 0.147 | 0.0231 | 3.58e-05 | 1.55e+06 |  | 0.72 | 0.38 | no binding (tested: 100 nM) |
| B9 |  |  |  |  |  |  | 0.161 | 0.0256 | 9.42e-05 | 3.68e+06 |  | 0.27 | 0.37 | no binding (tested: 100 nM) |
